Target: human HER3 receptor (human) (UniProt P21860)
Test: cell-based or functional assay

fold induction of 6×JNK-Luc reporter activity at 100 ng/ml NRG1: 4.2 fold
fold induction of JNK-Luc (3 copies of AP-1) reporter activity at 100 ng/ml NRG1: 2.6 fold
Substance: neuregulin-1 (from UniProt Q02297 177-241) (ligand)
